According to US20210188980A1:

The binders below were run against cynomolgus LAG-3 ECD/Fc fusion protein (cynomolgus monkey) (assay: ELISA, coated cynoLAG-3 ECD/Fc).
Sequence of cynomolgus LAG-3 ECD/Fc fusion protein (cynomolgus monkey) (chain, as listed by the source limits assumed, form in doubt): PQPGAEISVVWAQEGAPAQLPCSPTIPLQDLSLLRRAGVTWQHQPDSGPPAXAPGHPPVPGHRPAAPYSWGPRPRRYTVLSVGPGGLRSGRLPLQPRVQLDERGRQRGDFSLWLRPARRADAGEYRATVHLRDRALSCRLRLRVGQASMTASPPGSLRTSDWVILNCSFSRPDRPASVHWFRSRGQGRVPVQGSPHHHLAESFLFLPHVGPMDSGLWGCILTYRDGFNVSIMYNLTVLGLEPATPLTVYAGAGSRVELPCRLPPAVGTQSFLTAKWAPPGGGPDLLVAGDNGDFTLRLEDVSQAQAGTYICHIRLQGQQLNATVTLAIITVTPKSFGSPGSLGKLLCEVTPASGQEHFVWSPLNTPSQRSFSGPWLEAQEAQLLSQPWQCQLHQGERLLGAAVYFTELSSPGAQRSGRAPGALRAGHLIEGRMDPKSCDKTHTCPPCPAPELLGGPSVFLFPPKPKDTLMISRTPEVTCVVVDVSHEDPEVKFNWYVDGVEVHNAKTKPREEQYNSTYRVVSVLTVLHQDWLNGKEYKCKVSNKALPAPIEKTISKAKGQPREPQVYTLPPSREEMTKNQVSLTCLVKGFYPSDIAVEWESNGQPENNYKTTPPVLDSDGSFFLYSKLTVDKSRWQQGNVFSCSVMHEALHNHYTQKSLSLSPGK

Binder	EC50 [nM]
mAb749 (antibody, V domains shown) VH: EVQLQQSGAELVRPGASVKVSCTASDFNIKDDYVHWVKQRPEQGLEWIGWIDPENGDTEYASKFQGKATITADTSSNTAYLQLSSLTSEDTAVYFCSTWDAEENYWGQGTTLSVSS VL: DIVLTQAAPSVPVTPGESVSISCRSSKSLLHSNGNTYLYWFLQRPGQSPQVLIYRMSNLASGVPVRFSGSGSGTAFTLRISRVEAEDVGVYYCMQHLEYPFTFGSGTKLEIK	0.33
mAb742 (antibody, V domains shown) VH: QGQLQQSGAELVRPGASVTLSCKASGYTFNDYEMHWVKQTPVHGLEWIGAIDPETGGTAYNQKFKGKAILTADKSSSTAYMELRSLTSEDSAVYYCIRWGSTVFPYWGQGTLVTVS VL: DGVLTQTPLSLPVNIGDQASISCKSTKSLLNSDGFTYLDWYLQKPGQSPQLLIYLVSNRFSGVPDRFSGSGSGTDFTLKISRVEAEDLGVYYCFQSNYLPWTFGGGTKLEIK	0.32
mAb744 (antibody, V domains shown) VH: QVQLQQSGAELVRPGTSVTLSCKASGYTFTDYEMHWMKQTPVHGLEWIGAIDPATGGTAYNQKFKGKAILTADKSSSTAYMDFRSLTSEDSAVYYCIRWGTTVFPYWGQGTLVTVS VL: DVVLTQTPLSLPVNIGDQASISCKSTKSLLNSDGFTYLDWYLQKPGQSPQLLIYLVSNRFSGVPDRFSGSGSGTDFTLKISRVEAEDLGVYYCFQSNYLPWTFGGGTKLEIK	0.21
mAb746 (antibody, V domains shown) VH: EVQLQQSGAELVRPGASVKLSCTASDFNIKDDYMHWVKQRPEQGLDWIGWIVPENGNTEYASKFQGKATITADTSSNTAYLQLSSLTSEDTAVYYCTVYGDYWGQGTTLTVSS VL: DIQMTQSPSSLSASLGERVSLNCRASQEISGYLSWLQQKSDGTIKRLIYAASTLDSGVPKRFSGSRSGSDYSLTISSLESEDFADYYCLQYASYPLTFGAGTKLELK	0.21
mAb747 (antibody, V domains shown) VH: EVQLQQSGAELVRPGASVKLSCTASDFNIKDDYMHWVKQRPEQGLDWIGWIVPENGNTEYASKFQGKATITADTSSNTAYLQLSSLTSEDTAVYYCTVYGDYWGQGTTLTVSS VL: DIQMTQSPSSLSASLGERVSLNCRASQEISGYLSWLQQKPDGTIKRLIYAASTLDSGVPKRFSGSRSGSDYSLTISSLESEDFAAYYCLQYASYPLTFGAGTKLELK	0.34
mAb748 (antibody, V domains shown) VH: EVQMQQSGAELVRPGASVKLSCTVSGFNIKDDYMHWVKQRPEQGLEWIGWIDPENGDTEYASKFQGKATITADTSSNTAYLQLNSLTSEDTAVYYCTYFDYWGQGTTLTVSS VL: not shown	0.25
mAb750 (antibody, V domains shown) VH: EVQLQQSGAELVRPGASVKLSCTPSGLNIKDDYIHWVKQRPEQGLEWIGWIDPENGDTEYASKFQGKATITADTSSNTAYLQLSSLTSEDSAVYYCCTADYRNWYWGQGTTLTVSS VL: not shown	0.32
